Data taken from the nanobody polyreactivity screen of Harvey et al. (2022).

Assay: yeast display, Sf9 membrane polyspecificity reagent, FACS + sequencing; frameworks hold sequencing errors
How it was run: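 Galactose-induced (36–48 hours) yeast carrying a synthetic nanobody display library were exposed to 10% biotinylated, detergent-solubilized Sf9 membrane reagent at 4 °C for 1 hour. FACS followed streptavidin microbead enrichment, using low and high (top ~1%) gates for expression (anti-HA) and reagent binding (streptavidin). Colony PCR, MiSeq 2 × 250 sequencing and CDR-length filtering followed. Labels for polyreactivity reflect the gate of origin.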

Sequence | polyreactivity (PSR sort gate)
QVQLQESGGVQAGGSLRLSCAASGYISRSDVMGWYRQAPGKERELVATINNGTITYYADSVKGRFTISRDNAKNTVYLQMNSLIPEDTAVHYCAVVQSDTDSLYYWGQGTQVTVSS | low polyreactivity
QDQLVESGGGLVQAGGSLRLSCAASGIILGGYVMGWYRQAPGKERELVAALSYSGGRTDYADSVKGRFTISRDKAKNTVYLQMNILNPEDTAVYYCATEYWRYHGITKGYTRYDYWGQGTQVTVSS | high polyreactivity
QVQLVESGGGLVQAAGSLRLSCAASVIIFGLYTMGWYRQAPGKERELVAAISDSGGRTYYADSVKGRFTISLDNAKNTVFLQMNSLKPEDTAVYYCAAEFWYVWEYNYWGQGTQVTVSS | high polyreactivity
HVQLVESGGGLVQAGGSLRLSCAASGITFASYGMGWYRPAPGKDRELVAAISQRGGRTYYADSVKGRFTISRDNAKNTVYLQMNSLKPEDTAVYYCARTVGYRTLLESDSWGQGTQVTVAS | high polyreactivity
QVKLVESAAGLVQAGGSLRLSCDASGFTFALYANGLYIQAPRKERELVAVITYCGGRTYYADSVKGRFTISRVNAKNTVYLLMYSLKPEDTAVYYCNARYRQKGLYGTAFDYWGQGTQVTVSS | high polyreactivity
QVQLVESGGGLVQAGGSLRLSCAASGSTFSANAMGWYRQAPGKERELVASISRGGGSTYYADSVKGRFTISRDTAKNTVYLQMNSLKPDDTAVYYCAAVYYRRISQGDTQTYYQYNYWGQVTQVTVSS | high polyreactivity
QVQLVESGGGLVQAGGSLRLSCAASGIIFYKNAMGWYRQAPGKERELVAAISGSGGRTYYADSVKGRFTISRDNAKKTVYLQMNSLKPEDTAVYYCAARKPYRHGYESWGQGTQVTVSS | high polyreactivity
QVQLVESGGGLVQAGGSLRLSCAASGSIFSYYAMGWYRQAPGKERELVAAINWSGGRTYYADSVKGRFTISRDNAKNTVYLQMNSLKPEDTAVYYCNAVSNFWFIVFYGNQPKTDDYWGQGTQVTVSS | high polyreactivity
QVQLVESGGGLVQAGGSLRLTCAASGRIFSGYAMGWYRQEPGKEREFVASISTSGARTYYADSVKGRFTISRDNAKNTVYLQMNRLKPEDTAVYYCAKVIRWISYRGWYDYWGQGTQVTVSS | high polyreactivity
QVQLVESGGGLVQAGGSLRLICAASGSIITGYPMGWYRQAPGKERELVAGINSGTSTNFADSVKGRFTISRDNAKNTVFLQMNSMKPEDTAVYYCAKTAERRHYGVYRFDYWGQGTQVTVSS | low polyreactivity
QDHLVESGGGLVQAGGSLRLSCAASGFLFSQNVMGWYRQAPGKERELVAAISSGSRTYYADSVKGRFTISRDNAKNTVYLQMISLKPEDTAVYYCATDARVGGYVSEGDYWGLGTQVTVSS | low polyreactivity
QVQLVESGGGLVQAGGSLRLSCAHSGFTFTYYAMGWYRQAPGKEREFVAGISRSGGSTYYADSVKGRFTISRDIAKNTVYLQMNSLKPEDTAVYYCAATAYSPRGKRYDSWGQGTQVTVSS | high polyreactivity
QVQLVESGGGLVQAGGSLRISCAASGSIFPYNDMGWYRQAPGKERELVAVITSSGGSTYYADSVKGRFTISRDNAKNTVYLQMNSLKPEDTAVYYCAARGYNYYFGGYDYWGQGTQVTVSS | low polyreactivity
QVQLVESGGGLVQAGGSLRLSCAASGSTFPGNSMGWYRQAPGKEMELVAAIDTSGGSTYYADSVKWRFTISRDNAKNTVYLQINSLKPEDTAVYYCAADYLIEMDYWGQGTQVTVSS | low polyreactivity
QGQLGEYGGGLVQAGGSLRLSCAAYGRTVYYYAMGWYRQEPGKDREFVAGITATGSSTYYADSVKGRFTISRDNAKNTVYLQMNSLKPEDTAVYFCAADRYTTYSGQWSYPYDYWGQGTQVTVSS | low polyreactivity
QVQLVESGGGLVQAGGSLRLSCAASGFIFNYYAMGWYRQAPGKERELVAAISPSGDNTYYADSVKGRFTISRDNAKNTVYLQMNSLKPEDTAVYYCNKVQGSWRVPYYYWGQGTQVTVSS | high polyreactivity
QVQLVESGGGLVQAGGSLRLSCAASGFTLEDYTMGWYRQAPGKERELVARITSGGSTNYADSVKGRFTISRDNAKNTVYLQMNSLKPEDTAVYYCNARYAWINMDYWGQGTQVTVSS | low polyreactivity
QDQLVESGGGLVQAGGSLRLSCAASVITFVRNAKGWYRQAPGKERELVAAMSGRGGITYYADSVKGRFTISRDNAKNTVYLQMNSLKPEDTAVYYCAASSAGSSYNYWGQGTQVTVSS | high polyreactivity
QVQLVESGGGLVQAGGSLRLSSAASGSIFRNAMGWYRQAPGKERELVAGINGSGGSTYYADSVKGRFTISRDNAKNTVYLQMNSLKPEDTAVYYCAAGTSKPTPIYGYWGQGTQVTVSS | low polyreactivity
QLQLVESGGGLVQAGGSLRLSCAASGFTFSGYAMGWYRQAPGKERELVAAITKRGGSTYYADSVKGRFTISRDNAKNTVYLQMNSLKPEDTAVYYCAARGYISRYDARANAVQGNYWGQGTQVTVSS | high polyreactivity
QVQLVESGGGLVQAGGSLRLSCAASGFTFYYNAMGWYRQAPGKERELVAAISWTGGSTRYADSVKGRFTISRDNAKNTVYLQMNSLKPEDTAVYYCAARGYNYWGQGTQVTVSS | high polyreactivity
QVQLVESGGGLVQAGGSLRLSCAASGLTFGFNAMGWYRQAPGKERELVAAISSRGGSTYYADSVKGRFTISRDNAKNTVYLQMNSLKPEDTAVYYCNARSVYDGFWYNYWGQGTQVTVSS | low polyreactivity

Sequence | polyreactivity (PSR sort gate)
QVQLVESGGGLVQAGGSLRLSCAASGYIFYGYAMGWYRQAHGKERELVAAITVRGGSTYYADSVKGRFTISRDNAKNTVYLQMNSLNPEDTAVYYWAAAPQFTVGVGYWGQGTQVTVSS | low polyreactivity
QVQLVESGGGLVQAGGSLRLSCAASGRTFVANGMGGYRQAPGKERELVAAINYGDDTYYADSVKGRFTISRDNAKNTVYLQMNSQKPEDTAFYFLAADIIYGYEVYTYTSDYWGQGTQVTVSS | low polyreactivity
QVQLVESGGGLVQAGGSLRISCAASGSTVHYMAWYRQAPGKEREMVAGISWSGGSTYYADSVKGRFTISRDNAKNTVYLQMNSLKPEETAVYYCAADHFNYTSGRDYWGQGTQVTVSS | low polyreactivity
QVQLVESGGGLVQAGGSLRLICAASGSTFTRYAMGWYRQAPRKERELVAAISRGGSTNYADSVKGRFTISRDNAKNTVYLQMNSLKPEDTAVYYCAAARYRYYLGFGYDYWGQGTQVTVSS | high polyreactivity
QVQLVESGGGLVQAGGSLRLSCAASGYTFDVYAMGWYRQAPGTERELVAAISDSGGSTYYADSVKGRFTISRDNAKNTVYLQMNSLKPEDTAVYFCAAGYDYFYAIVSPSEYDYWGQGTQVTVSS | low polyreactivity
QVQLVESGGGLVQAGGSLRLSCAASGRILYHYAMGWYRQAPGKERELVAAITFSGDTTYYADSVKGRFTISRDNAKNTVYLQMNSLKPEDTAVYYCAADDYYLGYEYWGQGTQVTVSS | high polyreactivity
QVQLVESGGGLVQAGGSLRLSCAASGFTFGRNAMGWYRQAPGKERELVARITTGGSTNYADSVKGRFTISRDHAKNTVDLQMNRLKPEDTAVYDCAATYRSLALFWTYGYWGQGTQVTVSS | low polyreactivity
QVQLVESVGGLVQAGGSLRLSCAASGSTFVGNAMGWYRQAPGKERELVAAITGGGGSTYYADSVKGRFTISRDNAKNTVYLQMNSLKPEDTAVYYCAREYTYYPRWVGYDAYGEDYWGQGTQVTVSS | low polyreactivity
QVQLVESGGGLVQAGGSLRLSCAASGSIFDSYVMGCYRQAPGTERELVAAITYSGGSTYADSVKGRFTISRDNAKNTVYLQMNSLKPEDTAVYYCAADYYRGRYSYRYDYWGQGTQVTVSS | low polyreactivity
QVQLVESGGGLVQAGGSLRLSCAASGITIVRYAMGWYRQAPGKERELVAAINRSGGSTYYADSVKGRFTISRDNAKNTVYLQMNSLKPEDTAVYYCAARLYGKYDPPGYYYWGQGTQVTVSS | high polyreactivity
QVQLVESGGGLVQAGGSLRLSCDASGSIFLFNAMGWYIQAPGKERELVASISRASSTSYADSVKGRFTISRDNAKNTVYLQMNSLKPEDTAVYYCAAVVASFEFRFDYWGQGTQVTVSS | low polyreactivity
QVQLVESGGGLVQAGGSLRLSCAASGTFNYYAMGWYRQAPGKERELVAAISNGDSTTYADSVKGRFTISRDNAKNTVYLQMNSLKPEDTAVYYCAAYRYTPRTSRGYYYWGQGTQVTVSS | low polyreactivity
QVQLVESGGGLVQAGGSLRLSCAASGFIFHKYAMGWYRQAPGKERELVARITGSGASTFYADSVKGRFTISRDNAKNTVYLQMNSLKPEDTAVYYCAATIGSLLKYNRHRYYYWGQGTQVTVSS | high polyreactivity
QVQLVESGGGLVQAGGSLRLSCAASGSIFRNYAMGWSRQAPGKERELVAAITSIGGGTYYADSVKGRFTISRDNAKNTVYLQMNSLKPEDTADYYCAADYGFYPYDYVYWGQGTQVTVSS | low polyreactivity
QVQLVESGGGLVQAGGSLRLSCASSGRIFFKYAMGWYRQARGKERELLATITWRGSSTYYADSVKWRFTISRDNAKNTVYFQMNSLKPEDTAVYYCAAVAAWWYHQGVRYDYWGQGSQVTVSS | high polyreactivity
QVQLVESGGGLVQAGGTLRLSCAASGSIFGRNTMGWYRQAPGKERELVAAINSGGGTYYADSVKGRFTISRDNAKNTVYLQMNSLKPEDTAVYYCAKASRAVRHGDYWGQRTQVTVSS | low polyreactivity
QVQLVESGGGLVQAGGSLRLSCAASGLTFGGNAMGWYRQAPGKERELVAGISWSGGNTNYADSVKGRFTISRDNAKNTVYLQMNSLKPEDNAVYYCNKATNLSGGYDSWGQGTQVTVSS | low polyreactivity
QVHLVESGGGLVQAGGSLRLSCAASGFTFSYYAMGWYRQPPGKERELVAAITTSGGRTYYADSVKGRFPISRDNAKNTVYLQMNSLKPEDTAVYYCAATYPRYYSGEFDYWGQGTQVTVSS | high polyreactivity
QVQLVESGGGLVHEGRSLRLSCAASGSKYSYDAMGWYRQAPGTERELVPTISWRGRTYYADSVKGRFTISRDNAKNTVYLKMISLKPEDTAVYYCNTKSLYGRSRGYPYDYWGQGTQVTVSS | high polyreactivity
QVQLVESGGGLVQAGGSLRLSCAASGRIFNAYAMGWYRQAPGKERELVAAITDDGGTNYADSVKGRFTISRDNAKNTVYLQMNSLKPEDTAVYYCAATYLIGYYYVWEYDYWGQGTQVTVSS | low polyreactivity
QVQLEESGGGLVQAGGSLRLSCAASGYTFGFYTMGWYRQAPGQERALVAGISWSGGSTYYADSVKGPFTISRDNAKNTVYLQMNSLKQEDTAVFYCAAVSTRVLVNYDSWGQGTQVTVSS | high polyreactivity
